{
  "source": "paper PMC3682478",
  "biological_target": "E. coli RNA polymerase in elongating complexes and paused transcription complexes (transcription assays) (E. coli) (UniProt P0A7Z4)",
  "sequence (P0A7Z4 whole entry, chain 1 of 3, the tested form may be a part)": "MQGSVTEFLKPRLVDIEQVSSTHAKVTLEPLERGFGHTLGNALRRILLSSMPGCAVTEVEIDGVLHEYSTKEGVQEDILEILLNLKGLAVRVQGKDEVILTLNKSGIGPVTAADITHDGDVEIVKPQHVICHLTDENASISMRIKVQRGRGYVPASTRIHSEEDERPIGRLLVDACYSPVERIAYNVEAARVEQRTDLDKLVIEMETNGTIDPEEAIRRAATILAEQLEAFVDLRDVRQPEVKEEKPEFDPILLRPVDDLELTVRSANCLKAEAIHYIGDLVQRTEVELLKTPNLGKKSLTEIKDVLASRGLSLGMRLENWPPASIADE",
  "sequence (P0A8V2 whole entry, chain 2 of 3, further chain, the tested form may be a part)": "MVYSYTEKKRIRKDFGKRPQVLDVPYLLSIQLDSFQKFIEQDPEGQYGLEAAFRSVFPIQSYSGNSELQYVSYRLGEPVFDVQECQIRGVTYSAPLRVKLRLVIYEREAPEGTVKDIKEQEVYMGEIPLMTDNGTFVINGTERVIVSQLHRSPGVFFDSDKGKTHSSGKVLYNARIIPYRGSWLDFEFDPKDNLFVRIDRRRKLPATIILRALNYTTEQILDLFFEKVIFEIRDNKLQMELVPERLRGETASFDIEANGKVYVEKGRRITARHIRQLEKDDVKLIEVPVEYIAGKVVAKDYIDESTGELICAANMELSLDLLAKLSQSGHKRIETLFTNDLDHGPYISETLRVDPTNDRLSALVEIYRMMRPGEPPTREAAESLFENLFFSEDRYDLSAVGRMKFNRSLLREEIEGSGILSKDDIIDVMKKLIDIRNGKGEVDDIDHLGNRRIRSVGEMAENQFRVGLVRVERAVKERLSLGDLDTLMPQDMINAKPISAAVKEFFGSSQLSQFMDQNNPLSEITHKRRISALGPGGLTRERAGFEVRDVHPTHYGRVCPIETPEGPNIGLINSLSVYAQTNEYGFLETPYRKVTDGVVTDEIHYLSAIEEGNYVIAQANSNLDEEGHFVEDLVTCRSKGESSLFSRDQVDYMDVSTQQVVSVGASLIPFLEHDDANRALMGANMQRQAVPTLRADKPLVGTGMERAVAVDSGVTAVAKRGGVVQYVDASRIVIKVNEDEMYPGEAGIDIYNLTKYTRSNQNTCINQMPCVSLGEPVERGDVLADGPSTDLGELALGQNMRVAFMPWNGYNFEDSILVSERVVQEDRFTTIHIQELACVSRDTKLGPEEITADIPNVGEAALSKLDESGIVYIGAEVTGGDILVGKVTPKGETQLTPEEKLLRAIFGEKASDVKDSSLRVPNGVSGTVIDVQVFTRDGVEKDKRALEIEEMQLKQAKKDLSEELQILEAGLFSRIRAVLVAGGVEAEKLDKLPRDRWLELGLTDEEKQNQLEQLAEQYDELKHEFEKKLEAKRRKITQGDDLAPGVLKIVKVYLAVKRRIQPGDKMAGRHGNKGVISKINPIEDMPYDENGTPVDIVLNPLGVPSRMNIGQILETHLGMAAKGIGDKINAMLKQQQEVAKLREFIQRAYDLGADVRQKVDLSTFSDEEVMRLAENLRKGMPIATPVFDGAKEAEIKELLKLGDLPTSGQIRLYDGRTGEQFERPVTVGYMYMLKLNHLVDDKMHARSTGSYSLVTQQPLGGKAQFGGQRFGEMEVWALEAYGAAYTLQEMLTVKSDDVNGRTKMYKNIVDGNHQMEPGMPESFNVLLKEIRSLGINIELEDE",
  "sequence (P0A8T7 whole entry, chain 3 of 3, further chain, the tested form may be a part)": "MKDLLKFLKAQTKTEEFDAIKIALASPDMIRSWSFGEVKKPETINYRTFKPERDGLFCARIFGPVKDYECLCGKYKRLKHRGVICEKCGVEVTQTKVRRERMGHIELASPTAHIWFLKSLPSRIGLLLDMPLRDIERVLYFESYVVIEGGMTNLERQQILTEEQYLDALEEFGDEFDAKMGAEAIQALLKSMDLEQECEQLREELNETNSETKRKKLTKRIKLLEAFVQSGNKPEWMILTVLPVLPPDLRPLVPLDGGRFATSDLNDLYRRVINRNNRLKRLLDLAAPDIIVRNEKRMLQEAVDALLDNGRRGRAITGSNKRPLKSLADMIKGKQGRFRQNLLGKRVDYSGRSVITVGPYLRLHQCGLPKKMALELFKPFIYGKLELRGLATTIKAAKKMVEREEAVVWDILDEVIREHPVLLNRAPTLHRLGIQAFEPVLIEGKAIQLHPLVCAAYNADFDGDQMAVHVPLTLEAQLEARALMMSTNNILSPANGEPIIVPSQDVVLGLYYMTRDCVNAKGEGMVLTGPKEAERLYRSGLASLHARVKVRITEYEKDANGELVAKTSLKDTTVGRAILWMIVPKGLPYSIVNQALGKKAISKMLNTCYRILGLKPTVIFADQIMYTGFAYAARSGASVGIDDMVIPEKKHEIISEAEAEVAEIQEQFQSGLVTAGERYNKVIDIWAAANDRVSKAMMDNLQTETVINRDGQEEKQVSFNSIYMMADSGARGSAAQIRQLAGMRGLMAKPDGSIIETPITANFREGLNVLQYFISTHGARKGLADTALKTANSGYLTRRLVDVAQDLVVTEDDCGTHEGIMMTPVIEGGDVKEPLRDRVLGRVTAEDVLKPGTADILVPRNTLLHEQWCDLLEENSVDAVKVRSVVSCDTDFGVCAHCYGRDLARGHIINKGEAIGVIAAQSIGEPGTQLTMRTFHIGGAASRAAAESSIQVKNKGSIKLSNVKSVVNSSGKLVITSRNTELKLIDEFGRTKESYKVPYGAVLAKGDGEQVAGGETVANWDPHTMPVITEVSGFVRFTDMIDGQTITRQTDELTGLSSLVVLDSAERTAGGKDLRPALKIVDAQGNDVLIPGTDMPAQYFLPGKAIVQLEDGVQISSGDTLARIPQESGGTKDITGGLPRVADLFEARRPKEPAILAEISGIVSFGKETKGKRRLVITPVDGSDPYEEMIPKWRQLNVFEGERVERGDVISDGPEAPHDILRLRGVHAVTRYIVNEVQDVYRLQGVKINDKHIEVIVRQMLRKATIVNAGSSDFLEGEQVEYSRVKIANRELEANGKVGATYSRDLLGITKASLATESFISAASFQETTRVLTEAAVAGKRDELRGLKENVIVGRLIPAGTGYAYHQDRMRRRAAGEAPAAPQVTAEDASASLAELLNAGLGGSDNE",
  "data": [
    {"substance": "NusA NTD with N-terminal deletion, Δ(3-18) NTD (from UniProt P0AFF6 1-137) (domain or fragment)", "values": [
      {"measurement": "maximal pause stimulation k0/kNusA, his pause, scaffold", "result": 1.27}
    ]}
  ]
}
